Kd and kon data for 1 molecule are collected here from article PMC4441819 (Cell, 2015).

The term Kd denotes a measure of binding affinity in units of concentration. High values mean weaker binding, low ones tighter binding. By kon is commonly meant a measure of how fast the partners come together.

The target in this experiment is T1, HA A/Solomon Islands/03/2006 globular head (Influenza A virus A/Solomon …).
T1 chain: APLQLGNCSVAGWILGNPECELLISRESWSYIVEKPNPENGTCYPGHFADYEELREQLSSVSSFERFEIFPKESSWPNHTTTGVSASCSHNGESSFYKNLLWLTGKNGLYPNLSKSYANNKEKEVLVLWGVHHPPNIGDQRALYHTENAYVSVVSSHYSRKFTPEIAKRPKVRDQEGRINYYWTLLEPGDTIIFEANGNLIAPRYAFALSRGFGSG
Put plainly: BLI. Background: BLI is a label-free optical method that tracks binding on a fibre tip over time.

B1: CH67 Fab, critical dipeptide VD changed to ID (Fab, V domains shown)
VH: QVQLVQSGAEVRKPGASVKVSCKASGYTFTDNYIHWVRQAPGQGLEWMGWIHPNSGATKYAQKFEGWVTMTRDTSISTVYMELSRSRSDDTAVYYCARAGLEPRSIDYYFYGLDVWGQGTAVTVSS
VL: QSALTQPPSVSVAPGQTATITCGGNNIGRKRVDWFQQKPGQAPVLVVYEDSDRPSGIPERFSDSNSGTTATLTISRVEAGDEADYYCQVWDSDSDHVVFGGGTKLTVL
Take B1: the affinity, expressed as Kd, was 1790 ± 120 nM and the kon is 42400 M⁻¹ s⁻¹.
